The target in the experiment is Recombinant SARS-CoV-2 spike protein ectodomain, native glycosylation (SARS-CoV-2) (UniProt P0DTC2). The experiment can be described thus: ELISA.

On to “Flt3 Receptor Interacting Lectin (FRIL) from Lablab purpureus (from UniProt Q9ZTA9) (natural protein)”, for which the lowest FRIL concentration at which binding was seen came to 10 ng/mL.

The values above are taken from PMC7380208.
